Results on two substances are retold here after article PMC2114230.

Experiment [1] deals with actin filaments of rabbit skeletal muscle actin (rabbit) (UniProt P68135). The experiment is described as follows: co-sedimentation.
Experiment [2] has as its target microtubules of rat brain tubulin (rat) (UniProt P68370). The experiment is described as follows: co-sedimentation.

“255-kD protein of squid giant axon (natural protein)” came in with a percent of total 255-kD protein sedimented in experiment [1] of 62%.
In experiment [2], “axolinin (260-kD protein) of squid giant axon (natural protein)” came in with a percent of total axolinin sedimented of 70%.
